Results: paper doi:10.1101/2020.09.09.287508 (bioRxiv, 2020)

B1: ASGR1 (receptor)
chain: MTKEYQDLQHLDNEESDHHQLRKGPPPPQPLLQRLCSGPRLLLLSLGLSLLLLVVVCVIGSQNSQLQEELRGLRETFSNFTASTEAQVKGLSTQGGNVGRKMKSLESQLEKQQKDLSEDHSSLLLHVKQFVSDLRSLSCQMAALQGNGSERTCCPVNWVEHERSCYWFSRSGKAWADADNYCRLEDAHLVVVTSWEEQKFVQHHIGPVNTWMGLHDQNGPWKWVDGTDYETGFKNWRPEQPDDWYGHGLGGGEDCAHFTDDGRWNDDVCQRPYRWVCETELDKASQEPPLL
B2: KREMEN1 (receptor)
chain: ARPAPSPGLGPECFTANGADYRGTQNWTALQGGKPCLFWNETFQHPYNTLKYPNGEGGLGEHNYCRNPDGDVSPWCYVAEHEDGVYWKYCEIPACQMPGNLGCYKDHGNPPPLTGTSKTSNKLTIQTCISFCRSQRFKFAGMESGYACFCGNNPDYWKYGEAASTECNSVCFGDHTQPCGGDGRIILFDTLVGACGGNYSAMSSVVYSPDFPDTYATGRVCYWTIRVPGASHIHFSFPLFDIRDSADMVELLDGYTHRVLARFHGRSRPPLSFNVSLDFVILYFFSDRINQAQGFAVLYQAVKEELPQERPAVNQTVAEVITEQANLSVSAARSSKVLYVITTSPSHPPQTVPGSNSWAPPMGAGSHRVEGWTVYGLATLLILTVTAIVAKILLHVTFKSHRVPASGDLRDCHQPGTSGEIWSIFYKPSTSISIFKKKLKGQSQQDDRNPLVSD

Target: SARS-CoV-2 S-ECD-hFc (extracellular domain of the spike (S) protein, hFc-tagged) (SARS-CoV-2, UniProt P0DTC2 14-1213)
Assay: flow cytometry on cells

| Binder | Kd [nM] |
| --- | --- |
| B1 | 94.8 |
| B2 | 19.3 |
